Measured values reported in US7407766.

Molecular target: full-length mouse Plexin-A1 protein (aa1 to 1894) (mouse) (UniProt P70206)
Experiment: AP activity bound to Plexin-A1 expressing L cells, non-specific binding to parent L cells subtracted; Scatchard plot

Sequence of full-length mouse Plexin-A1 protein (aa1 to 1894) (mouse) (P70206 28-1894 limits assumed): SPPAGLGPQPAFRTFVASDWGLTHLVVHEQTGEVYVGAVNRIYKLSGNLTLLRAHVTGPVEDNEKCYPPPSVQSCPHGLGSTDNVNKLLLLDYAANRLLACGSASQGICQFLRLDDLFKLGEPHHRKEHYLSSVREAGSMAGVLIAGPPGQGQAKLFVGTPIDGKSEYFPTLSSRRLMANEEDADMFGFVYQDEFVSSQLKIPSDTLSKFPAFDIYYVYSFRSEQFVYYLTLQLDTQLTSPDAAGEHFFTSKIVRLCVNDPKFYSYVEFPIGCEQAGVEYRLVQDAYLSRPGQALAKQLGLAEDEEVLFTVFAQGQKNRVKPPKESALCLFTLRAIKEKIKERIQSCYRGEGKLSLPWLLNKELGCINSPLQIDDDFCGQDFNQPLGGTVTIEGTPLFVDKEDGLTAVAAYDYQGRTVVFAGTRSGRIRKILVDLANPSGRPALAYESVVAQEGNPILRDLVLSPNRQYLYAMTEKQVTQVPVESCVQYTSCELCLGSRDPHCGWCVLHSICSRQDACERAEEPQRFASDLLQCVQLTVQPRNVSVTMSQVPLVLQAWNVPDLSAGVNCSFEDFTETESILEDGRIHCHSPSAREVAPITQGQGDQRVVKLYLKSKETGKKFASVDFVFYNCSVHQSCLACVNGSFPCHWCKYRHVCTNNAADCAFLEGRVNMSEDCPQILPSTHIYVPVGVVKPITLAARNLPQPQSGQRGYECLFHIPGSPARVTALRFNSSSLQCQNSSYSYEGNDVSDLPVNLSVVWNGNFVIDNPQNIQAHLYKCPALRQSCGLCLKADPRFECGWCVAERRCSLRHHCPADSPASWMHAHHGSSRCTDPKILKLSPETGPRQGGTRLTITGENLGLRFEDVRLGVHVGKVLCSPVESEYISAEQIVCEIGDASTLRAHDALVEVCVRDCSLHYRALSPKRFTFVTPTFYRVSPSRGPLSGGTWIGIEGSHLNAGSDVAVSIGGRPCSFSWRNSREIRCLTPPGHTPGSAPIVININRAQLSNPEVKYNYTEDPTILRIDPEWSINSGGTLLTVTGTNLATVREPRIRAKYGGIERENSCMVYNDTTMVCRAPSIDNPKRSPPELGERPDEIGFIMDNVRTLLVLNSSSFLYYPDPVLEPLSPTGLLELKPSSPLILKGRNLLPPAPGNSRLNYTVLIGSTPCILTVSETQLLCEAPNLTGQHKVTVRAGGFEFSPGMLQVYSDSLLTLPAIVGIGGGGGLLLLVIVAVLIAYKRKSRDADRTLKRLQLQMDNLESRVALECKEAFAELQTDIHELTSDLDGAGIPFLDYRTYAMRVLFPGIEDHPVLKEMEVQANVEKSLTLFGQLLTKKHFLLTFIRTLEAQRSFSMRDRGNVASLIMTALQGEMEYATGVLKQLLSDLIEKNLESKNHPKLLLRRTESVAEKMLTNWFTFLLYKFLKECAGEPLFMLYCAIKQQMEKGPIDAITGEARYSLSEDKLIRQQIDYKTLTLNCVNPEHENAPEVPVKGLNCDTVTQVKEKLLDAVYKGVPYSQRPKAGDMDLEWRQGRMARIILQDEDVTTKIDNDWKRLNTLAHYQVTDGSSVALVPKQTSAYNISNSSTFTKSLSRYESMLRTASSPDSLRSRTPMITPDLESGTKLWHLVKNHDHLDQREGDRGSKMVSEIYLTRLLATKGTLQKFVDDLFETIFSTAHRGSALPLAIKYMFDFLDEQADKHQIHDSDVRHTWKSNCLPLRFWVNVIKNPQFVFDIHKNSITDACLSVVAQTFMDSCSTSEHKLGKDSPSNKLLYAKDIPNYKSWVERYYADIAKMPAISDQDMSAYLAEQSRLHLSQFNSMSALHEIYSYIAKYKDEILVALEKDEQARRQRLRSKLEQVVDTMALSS

“Sema6C-alkaline phosphatase fusion protein (Sema6C-S-AP) (from UniProt Q9WTL3 24-599; P05187 23-511) (ligand)” was tested, and the Kd was 16.5 nM.
